Test results: US7919580B2, “Polysaccharide-protein binding model and nano-fibril formation of a starch binding domain” (priority 2008, dated 2011)

Assays:
RoGACBM21 = target: T1, RoGACBM21 (Rhizopus oryzae, UniProt P07683); conditions: reported binding assay results; read-out: Kd (binding affinity) of soluble ligand with RoGACBM21; cited from earlier work
T1 construct: the recombinant SBD of 108 amino acid residues; 6xHis (C); made in house; host or cells: E. coli BL21-Gold (DE3), pET23a(+)

[1] = Starch binding isotherm (saturation binding assay); conditions: insoluble starch, 50 mM sodium acetate pH 5.5, 25° C., 16 h
Protocol: The starch binding isotherm was analyzed as a saturation binding assay as reported. Wild-type and mutant RoGACBM21 derivatives (100 μL, in 50 mM sodium acetate, pH 5.5) were mixed with 0.1 mg of prewashed insoluble starch and incubated at 25° C. with gentle stirring for 16 h. After centrifugation at 16,000×g for 10 min at 4° C., the protein concentration of the supernatant (unbound protein) was determined by BCA assay, and the amount of bound protein was calculated from the difference between the initial and unbound protein concentrations. The Kd and Bmax values were determined by fitting to the non-linear regression of the binding isotherms using a standard single-site binding model.

[2] = Fluorescence spectrophotometry of binding to βCD; conditions: intrinsic protein fluorescence, 50 mM sodium acetate pH 5.5, 25° C.; read-out: β-cyclodextrin Kd
Protocol: Fluorescence spectrophotometry of the binding of wild-type or mutant RoGACBM21 to βCD was recorded by measuring changes in the intrinsic protein fluorescence intensity. Experiments were performed in 50 mM sodium acetate, pH 5.5, at 25° C. using a PerkinElmer LS-55 spectrophotometer. Circular and linear carbohydrates (2 to 20 mM) were titrated into RoGACBM21 (1 μM, 2 mL), and the fluorescence-emission spectrum was monitored at 350 nm with a fixed excitation at 280 nm. The relative changes in fluorescence intensity were plotted against ligand concentration, and the data were fitted to a simulated curve using the appropriate equation for a single binding site.

[3] = Circular dichroism spectroscopy and thermal unfolding; assay type: physicochemical; conditions: far-UV CD at 215 nm; for β-sheet signals upon heating: ascending temperature
Protocol: (A) CD spectra were collected from 200 to 260 nm at 25° C. at a concentration of 50 μM in 10 mM sodium acetate buffer (pH 4.5). (B) Thermal unfolding of SBD was measured by monitoring changes in the far-UV CD spectra at 215 nm. (C) CD spectra of SBD were recorded between 200 and 260 nm at various temperatures
CD spectra and thermostabilities were recorded in a 0.1-cm cuvette using an Aviv model 202 CD Spectrometer. Data collection and calculation were carried out as previously described.

[4] = Sedimentation velocity ultracentrifugation; assay type: physicochemical
Protocol: The sedimentation velocity studies were performed at 50,000 rpm for 30 μM (solid line) and 60 μM (dotted line) SBD, and absorbance scans were recorded at 280 nm.

[5] = Thioflavin T fluorescence (ThT) assay for fibril formation; assay type: physicochemical; conditions: SBD sample heated at 97° C.
Protocol: Purified SBDs or synthetic peptides were dissolved in 10 mM sodium-citrate or phosphate-citrate buffer to a final concentration of 100 μM (at indicated pH). […] The measurements were recorded in a Perkin Elmer LS-55 spectrofluorometer at 25° C.
The relative fluorescence, peaked at 482 nm, subtracted from the background of buffer from the total fluorescence were measured as the amount of fibrillar aggregates with the excitation wavelength (slit width=4 nm) set at 450 nm and monitoring emission wavelength (slit width=8 nm) set at from 470 to 630 nm.

[6] = starch; fold higher than AnGACBM20; cited from earlier work

OC[C@H]1O[C@@H]2O[C@H]3[C@H](O)[C@@H](O)[C@@H](O[C@H]4[C@H](O)[C@@H](O)[C@@H](O[C@H]5[C@H](O)[C@@H](O)[C@@H](O[C@H]6[C@H](O)[C@@H](O)[C@@H](O[C@H]7[C@H](O)[C@@H](O)[C@@H](O[C@H]8[C@H](O)[C@@H](O)[C@@H](O[C@H]1[C@H](O)[C@H]2O)O[C@@H]8CO)O[C@@H]7CO)O[C@@H]6CO)O[C@@H]5CO)O[C@@H]4CO)O[C@@H]3CO [βCD, β-cyclodextrin]
Kd (RoGACBM21): ~5 µM

maltoheptaose [G7]
Kd (RoGACBM21): ~5 µM

B1: WT: recombinant starch-binding domain (family 21 carbohydrate binding module) of Rhizopus oryzae glucoamylase, 108 amino acid residues (protein, listed as Rhizopus oryzae)
chain: ASIPSSASVQLDSYNYDGSTFSGKIYVKNIAYSKKVTVVYADGSDNWNNNGNIIAASFSGPISGSNYEYWTFSASVKGIKEFYIKYEVSGKTYYDNNNSANYQVSTSK
modifications: DOMAIN (1)..(108)
Kd [1]: 1.4 ± 0.1 µM
Starch Bmax [1]: 41.1 ± 1.1 µmol/g
Kd [2]: 5.1 ± 0.7 µM
apparent temperature for unfolding [3]: approximately 65 °C
s20 (sedimentation coefficient) ([4]; 30 μM, 50,000 rpm): 1.3 S
oligomeric state in solution ([4]; high concentration (60 μM)): oligomeric forms of SBD appeared
oligomeric state in solution ([4]; low concentration (30 μM)): mainly as a single monomeric species
increase in ThT fluorescence emission intensity at 482 nm [5]: 9 fold
maximal amount of bound protein (Bmax) relative to AnGACBM20 [6]: 40-70 fold

B2: SBD (K108R): SBD mutant K108R (protein)
chain: ASIPSSASVQLDSYNYDGSTFSGKIYVKNIAYSKKVTVVYADGSDNWNNNGNIIAASFSGPISGSNYEYWTFSASVKGIKEFYIKYEVSGKTYYDNNNSANYQVSTSR
modifications: Modified SBD.
β-sheet signals upon heating [3]: still showed strong β-sheet signals upon heating

B3: SBD (K108H): SBD mutant K108H (protein)
chain: ASIPSSASVQLDSYNYDGSTFSGKIYVKNIAYSKKVTVVYADGSDNWNNNGNIIAASFSGPISGSNYEYWTFSASVKGIKEFYIKYEVSGKTYYDNNNSANYQVSTSH
modifications: Modified SBD.
β-sheet signals upon heating [3]: still showed strong β-sheet signals upon heating

B4: SBD (K108D): SBD mutant K108D (protein)
chain: ASIPSSASVQLDSYNYDGSTFSGKIYVKNIAYSKKVTVVYADGSDNWNNNGNIIAASFSGPISGSNYEYWTFSASVKGIKEFYIKYEVSGKTYYDNNNSANYQVSTSD
modifications: Modified SBD.
β-sheet signals upon heating [3]: diminished the β-sheet signals upon heating
